Measurements: paper PMC10037535

Biological target: F-4p-18mer-tail (synthetic fluorescein-labeled tetraphosphorylated PTEN C-tail peptide)
Assay: fluorescence polarisation

## VSP Asp mutants of the active site Lys residues (Lys364 and Lys367) (domain or fragment)
  fold weakening of the phospho-tail interaction against wild-type VSP: 3.4 fold
